Substitutions are numbered along the chain they refer to. In names and notes the source's numbering stands. Each block holds one binder with its values, some of them ahead of it.
Molecular target: T1, karyopherin beta 2 (Kapβ2), endogenous (human (endogenous in HEK293), UniProt Q92973 1-898)
T1 sequence (looked up): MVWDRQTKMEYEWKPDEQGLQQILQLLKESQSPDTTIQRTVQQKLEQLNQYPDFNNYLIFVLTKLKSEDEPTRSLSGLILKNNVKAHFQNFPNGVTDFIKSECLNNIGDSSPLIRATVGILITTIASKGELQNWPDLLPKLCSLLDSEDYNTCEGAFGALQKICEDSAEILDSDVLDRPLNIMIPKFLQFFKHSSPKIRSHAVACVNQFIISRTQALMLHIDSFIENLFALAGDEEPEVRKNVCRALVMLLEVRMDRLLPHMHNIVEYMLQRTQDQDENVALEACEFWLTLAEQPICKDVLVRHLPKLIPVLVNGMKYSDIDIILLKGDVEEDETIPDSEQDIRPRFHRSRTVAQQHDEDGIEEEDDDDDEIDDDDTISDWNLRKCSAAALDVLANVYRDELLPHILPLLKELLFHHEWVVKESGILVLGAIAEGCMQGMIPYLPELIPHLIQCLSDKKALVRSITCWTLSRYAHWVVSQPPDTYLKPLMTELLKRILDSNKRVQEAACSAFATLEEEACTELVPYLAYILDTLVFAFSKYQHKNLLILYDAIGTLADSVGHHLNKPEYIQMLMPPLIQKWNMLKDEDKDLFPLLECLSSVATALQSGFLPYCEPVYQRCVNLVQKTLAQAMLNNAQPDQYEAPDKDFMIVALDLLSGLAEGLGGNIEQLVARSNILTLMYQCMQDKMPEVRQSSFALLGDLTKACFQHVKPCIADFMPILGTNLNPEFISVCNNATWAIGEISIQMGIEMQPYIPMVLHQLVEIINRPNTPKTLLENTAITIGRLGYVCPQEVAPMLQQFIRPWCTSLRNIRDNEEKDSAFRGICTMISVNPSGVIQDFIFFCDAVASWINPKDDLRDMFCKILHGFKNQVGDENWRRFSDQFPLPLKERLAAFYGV
Test: cell-based or functional assay

- nuclear-to-total fluorescence ratio (Fn/t) of EGFP-ULK2 WT in HEK293 cells, confocal microscopy (Fig 3D): 44.5
B1: EGFP-ULK2 WT (natural protein, human, UniProt Q8IYT8 1-1036, looked up)
chain: MEVVGDFEYSKRDLVGHGAFAVVFRGRHRQKTDWEVAIKSINKKNLSKSQILLGKEIKILKELQHENIVALYDVQELPNSVFLVMEYCNGGDLADYLQAKGTLSEDTIRVFLHQIAAAMRILHSKGIIHRDLKPQNILLSYANRRKSSVSGIRIKIADFGFARYLHSNMMAATLCGSPMYMAPEVIMSQHYDAKADLWSIGTVIYQCLVGKPPFQANSPQDLRMFYEKNRSLMPSIPRETSPYLANLLLGLLQRNQKDRMDFEAFFSHPFLEQGPVKKSCPVPVPMYSGSVSGSSCGSSPSCRFASPPSLPDMQHIQEENLSSPPLGPPNYLQVSKDSASTSSKNSSCDTDDFVLVPHNISSDHSCDMPVGTAGRRASNEFLVCGGQCQPTVSPHSETAPIPVPTQIRNYQRIEQNLTSTASSGTNVHGSPRSAVVRRSNTSPMGFLRPGSCSPVPADTAQTVGRRLSTGSSRPYSPSPLVGTIPEQFSQCCCGHPQGHDSRSRNSSGSPVPQAQSPQSLLSGARLQSAPTLTDIYQNKQKLRKQHSDPVCPSHTGAGYSYSPQPSRPGSLGTSPTKHLGSSPRSSDWFFKTPLPTIIGSPTKTTAPFKIPKTQASSNLLALVTRHGPAEEQSKDGNEPRECAHCLLVQGSERQRAEQQSKAVFGRSVSTGKLSDQQGKTPICRHQGSTDSLNTERPMDIAPAGACGGVLAPPAGTAASSKAVLFTVGSPPHSAAAPTCTHMFLRTRTTSVGPSNSGGSLCAMSGRVCVGSPPGPGFGSSPPGAEAAPSLRYVPYGASPPSLEGLITFEAPELPEETLMEREHTDTLRHLNVMLMFTECVLDLTAMRGGNPELCTSAVSLYQIQESVVVDQISQLSKDWGRVEQLVLYMKAAQLLAASLHLAKAQIKSGKLSPSTAVKQVVKNLNERYKFCITMCKKLTEKLNRFFSDKQRFIDEINSVTAEKLIYNCAVEMVQSAALDEMFQQTEDIVYRYHKAALLLEGLSRILQDPADIENVHKYKCSIERRLSALCHSTATV

- nuclear-to-total fluorescence ratio (Fn/t) of endogenous ULK2 in FSK-treated HEK293 cells (normal DMEM-grown cells: 49.36+/−4.90), confocal microscopy (Fig 6Q): 52.7
- nuclear-to-total fluorescence ratio (Fn/t) of endogenous ULK2 in H89-treated HEK293 cells (normal DMEM-grown cells: 49.36+/−4.90), confocal microscopy (Fig 6Q): 35.8
B2: Uncoordinated 51-like kinase 2 (ULK2), endogenous (natural protein, human (endogenous in HEK293), UniProt Q8IYT8 1-1036, looked up)
chain: B1 chain

- nuclear-to-total fluorescence ratio (Fn/t) of the EGFP-ULK2 P242A mutant in HEK293 cells, confocal microscopy (Fig 3D): 67.2
B3: EGFP-ULK2 P242A mutant (natural protein, human, UniProt Q8IYT8 1-1036, looked up)
chain: B1 chain with P242A

- nuclear-to-total fluorescence ratio (Fn/t) of the EGFP-ULK2 PY-NLS (P794A) mutant in HEK293 cells, confocal microscopy (Fig 3D): 17.1
B4: EGFP-ULK2 PY-NLS mutant (P794A) (natural protein, human, UniProt Q8IYT8 1-1036, looked up)
chain: B1 chain with P794A
